According to the DeepSol protein solubility set:

Assay: soluble on expression in E. coli; label from the status in PepcDB or PDB records

Sequence	soluble on expression in E. coli
MAKLDDWTDIFLDDEGNFRASADGDVQLVTGKAAYLQDVKHELETVLGSYPFDENYGTRLITYLQRENTELARQELIQDVEEVVMRHSFVVPGSVDVRANSWTLREIEFSVSFGVQTSGGIEPAELTVQITVDGVRVVRSE	not soluble
MAHHHHHHMQMEEKQAFFVESVDGRKFKMVIRGDLGKLSVAKIRRYLKSYGVPENQLLLAGNRVLEDAMLGEQFGLENEGVLHLREPTTVQHLAPAAVPSTAQSRTQLQQKPELSYEPQSAWRETRYEPAAHDARQMQREIERLQRQVEAAEARNADLEHQLEQVAESSAPYPPRGGA	not soluble
MGYTLADKIWRSHVVRSAEGEPDLVYIDMHLLHEVNTPAAFAGLRAAGRTVRRPDLTLGTEDHNTPTDDVLRMITDPGAVEQLDHIRRNCRDFGIELYSLGDSARGIVHVIGPELGLTQPGMTLVCCDSHTSTHGAFGVLAFGIGTSQVEHVLATQTLPMAPMQN	not soluble
DGVGGDPAVALPHRRFEYKYSFKGPHLVQSDGTVPFWAHAGNAIPSSDQIRVAPSLKSQRGSVWTKTKAAFENWEVEVTFRVTGRGRIGADGLAIWYAENQGLEGPVFGSADLWNGVGIFFDSFDNDGKKNNPAIVIIGNNGQIHYDHQNDGASQALASCQRDFRNKPYPVRAKITYYQNTLTVMINNGFTPDKNDYEFCAKVENMIIPAQGHFGISAATGGLADDHDVLSFLTFQLTEPGKEPPTPDKEISEKE	soluble
MGSDKIHHHHHHMANLLTINHLSYSRNLQLILKDLNLELPYGQIVGLLGTNGAGKTTLMRLIAGNYIDRKNSISINTETNSAVRKSLVSFTEQVGGWSGHPRIFKIGNFYDALYEDFNLTTFNQLLSNLNLSPDQRVNQLSKGNFRKLVIAVTLARQTDLYLLDEPFDGIDSMTRKKIISSIIQWKPENATVLVSDHHVGDIANLLDQVVIIKDQHVAAQEAADTIRETLGKDIETYYEDFYREEL	not soluble
TSSDTQNNKTLAAMKNFAEQYAKRTDTYFCSDLSVTAVVIEGLARHKEELGSPLCPCRHYEDKEAEVKNTFWNCPCVPMRERKECHCMLFLTPDNDFAGDAQDIPMETLEEVKASMA	soluble
MFLRYMRRRGSGEDHEEEPRGVTVIATKVAENSKNPRRYSLVHQASCETQHHKGIRRQNTIQHRKQLTDQMRCQKILQQLNDEGIEVIFTANDVTPIEFSIILTSTDPTLSNFVSDILQNMSSAKVQICHVETRGNEASHDVLLACKATKNQLIHSAELLTQNHVALTKFSIFAKKLSDEKNQSQIWFPRHISELDQCSKCITKYEPTTDPRHPGHGDVAYIARRKFLNDQALEFKFGDEIGYVDYTEEEHATWKAVYEKLGDLHLSHTCAVYRQNLKILQEEKVLTADRIPQIRDVNKFLQKKTGFELRPCSGLLSARDFLASLAFRVFQTTTYLRHHKSPHHSPEPDLIHELLGHVPMFSDPLLAQMSQDIGLMSLGASDEHIEKLSTVYWFIVEFGLCKEDGKLKAIGAGLLSAYGELMHACSDAPEHKDFDPAVTAVQKYEDDDYQPLYFVADSIHDALAKLRKYASSMDRPFSVVYDPFTKSIEAIESSADLEKAFSRLSNDLSAITHAADRMKISITM	not soluble
MSLTTSHFIPFPREMVWDWHTRKGAVARLTPPFIPLNPITQAERLADGTTIFSLPAGLKWVARHDLSGFLNGSRFTDVCLTAPVKALANWRHVHNFVDQDGGTLITDSVSTRLPASTLTGMFAYRQTQLIEDLKFLSRTSTLFDGSPLTVAITGSRGLVGRALTAQLQTGGHEVIQLVRKEPKPGKRFWDPLNPASDLLDGADVLVHLAGEPIFGRFNDSHKEAIRESRVLPTKFLAELVAESTQCTTMISASAVGFYGHDRGDEILTEESESGDDFLAEVCRDWEHATAPASDAGKRVAFIRTGVALSGRGGMLPLLKTLFSTGLGGKFGDGTSWFSWIAIDDLTDIYYRAIVDAQISGPINAVAPNPVSNADMTKILATSMHRPAFIQIPSLGPKILLGSQGAEELALASQRTAPAALENLSHTFRYTDIGAAIAHELGYEQLADFAQQQEIEAERKQERAELKAAKKIAKKAPVLEESPTNLEDPEEVEQSILSSILNFRRKRNDLEHHHHHH	soluble
MSLIYLLNETPFEGVENLILNEIVFYDFSVDLSLYDALICTSKNALKALQHAKITLNFKLNLYAVGQSTAQYAKNLGFKKIKIPSKAYGKDLFLEFKEELKMQKCLYLRAKNIVSTLNLDLKNVGVDLDEMIVYENVFKKGDKKLIHPAIFIFTSPLSVENFLKFYSLKEEDKVVVIGQSTAKKLLNFKNLYICENQSLLNCVKLAKTLVEGHHHHHH	not soluble
MGQMFNPPHPGETLREDVLPAFNLTVTEAANQLGVSRVTLSRVLNGTSAISPEMALRIEEWLGVENGGRADLWLGMQTSYDLWKARERVHQQPLSVRSVKHKSTEMALR	not soluble
MSKLRFRVVETAFKKKAVEVATPAERPSEYFGKYVFNKEKMFKYLPSKVYNALIDAIDNGAPLDRSIADEVAAGMKKWAVEMGVTHYTHWFAPLTEGTAEKHDAFVEHDGKGGMMEEFTGKLLVQQEPDASSFPNGGIRNTFEARGYSAWDPSSPAFIVDDTLCIPTVFIAYTGEALDYKAPLLKALRAVDKAATAVCHYFNPEVKKVVAYLGWEQEYFLVDEGLYAARPDLLMTGRTLMGHDSAKNQQLEDHYFGAIPTRVAAFMKDLEIEALKLGIPVKTRHNEVAPNQFELAPIFEECNLANDHNLLIMSLMRKVSRRHGFRVLLHEKPFKGVNGSGKHNNWSLGTDTGILLMGPGKTPEDNLRFVTFVVNTLMAVYRHNGLLKASISSATNAHRLGANEAPPAIISSFLGKQLSQVLDHIENSTKDDLINLSGKQGMKLDIPQIPELLIDNTDRNRTSPFAFTGNRFEFRAVGSEANCASAMIALNAAVAEQLMKFKKDVDALIEKGEPKVSAILEVIRGYIKECKAIHFDGNGYSDEWKVEAARRGLDCETSVPVIFDNYLKPETIAMFEAIGVMTKKELEARNEVKWETYTKKIQIEARVLGDLAMNHIIPVATQYQTDLINNVYKMQSLFPADKAARLSAKNLELIEEIADRTAFIKEHVDAMIEARKVANKIESEREKAIAYHDTIVPALEEIRYHIDKLELIVDNQMWTLPKYRELLFVR	soluble
MSLAIRVVCISDTHDLKVDIPRGDILIHAGDLTDGGTVSDIQKQLDWLKEQPHPIKVVVAGNHDSWFDQKSRPEEDARSGAKPDMDGLIYLESGLTVQKVKGRTVNIFGVPDIPEIGPKEFAFQYATDNHPWLSKVPPQTDILVTHCPPKHHLDLGLGDSNLLREVWRVKPRLHVFGHVHCAYGKESVFFDNFQQTYERIMSRPRRGPILDFIPNEAWLDYLRFLAQGIHAVAWKWIMSGPGSNNGSLMVNAAQMKGNSGKVKSRAVVVEIEGHHHHHH	soluble
MGSDKIHHHHHHMDKAGKETPFWVQKTLAQLNAHEWEALCDRCGLCCLVKAEDEEAGDIYLTSLICPFFDLKTKVCSCYSQRKQQNPDCSTLTPMTVQTYDWLPDHCAYRLVAAGKPLPTWHPLISGRHDTVVNVMNYFKGVKIRHLQPHSDLEDYLILDPPEG	not soluble
MSLNDQYEALYQTFRWLVPTQFNIADACCHRWAASSPDARRIAIYYEDEAGNREVWTYARLAEAANQLANGLVKMGVERGDRVGVVLGQRPETVVAHMAIYSVGAVVLPLSPLFGPEALESRLRDADARVAIVDYASSANLLAISDNCPNLHQIIGIGFADERVLPWRSLLARQPNEFKMVATRASDPAILMYTSGTTGAPKGALLPHSVLIGNLPGFVASQDWFPRPGDVFWSPADWAWTGGMMDALLPTLYFGHPIVGTRGRFTPERAFELMERYQVTNTFLFPTALKMMMKSVPEPRGRYQLALRSIMSAGESVGETVFEWCEQALGITPNEMFGQTELNYVVGNSNRRWPARPGSMGRPYPGHRVAVIDEAGRPVKPGETGEVALNRFDIHGFPDPVLFLGYWRNEAATAAKFTDDWCRTGDLASIDADGYLWYAGRADDVFKSAGYRIGPGEIENCLLGHPAVANAAVVPKPDAERGALVKAYVVLTPEYQGRDPDSITQVLQEHVRDRLAPYEYPKEIEYVDALPMTTTGKIQRAVLRRREAERASGAHSEGHHHHHH	not soluble
MEKPTRLALLKEIAEFLNEETEIYSMMQGALRLLINGSDFSTGWIFYIDEEGHHDLVSSVDLPEALSKNHCYYLTNGSCWCVQAYQNHKLTKASNIINCSRINLANHAYDKETNHITHHATVPLQSGSERFGLLNVASPNKEHYSEEDLELLESVAFQIGSAIKRIQLTNKEKENAKINERNRLARDLHDSVNQMLFSLKLTAHAAKGITTDEQAQRAFKTIEETSQNAVNEMRALIWQLKPVGLEQGLIHALHYYSKMLGLDLKVTINGLIDLSNDIEENVYRIIQEAMNNVIKHAKTNKVYLDLSQNVDYLEVDIRDNGQGFDTQSINTFLFNGLKNIKQRTQYLNGKVTIESKINQGTRIYIKIPLKLKEHPYA	not soluble
MTEYIQDAIPAKLAIAIANPIFPQLDSQLRAGRHISIEMLDEHAFLMDFQTELESFYRRYHVDLIRAPEGFFYLRPKASTLIARSAMSEMEMLVGKVLCYLYLSPERLAQQGIFSQDDVYEELLNLADENKLLKAVNPRSTGSDLDRAKLAEKVGGALRRLARIGIITRVGEQNSKKFIISEAVFRFGADVRAGDDPREVQLRLIRDGEATTPTLLTTEAIEFAEDGARDELEESEAELEHHHHHH	soluble
SLAPQPLKKGEKAIDVASVVRQKMPASVKDRDAWAKDLATTFESQGLAPTLENVCSVLAVAQQESNYQADPAVPGLSKIAWQEIDRRAERMHIPAFLVHTALKIKSPNGKSYSERLDSVRTEKQLSAIFDDLISMVPMGQTLFGSLNPVRTGGPMQVSIAFAEQHTKGYPWKMDGTVRQEVFSRRGGLWFGTYHLLNYPASYSAPIYRFADFNAGWYASRNAAFQNAVSKASGVKLALDGDLIRYDSKEPGKTELATRKLAGKLGMSDSEIRRQLEKGDSFSFEETALYKKVYQLAEAKTGKSLPREMLPGIQLESPKITRNLTTAWFAKRVDERRARCMKQ	soluble
MDAEGNLFMSWRDGGTFGIARINEQQNIVTPLIEADAANRILYANGLTVDRATGMLTAAHESVKEVTFTFDPREAWYPRQRNIKYSQSDLNSIVDADRYKNFVTFCPYDGYLYTRYRDGKIAKIDPNTFEGHIIHQGPSGSQYGQAINPAKPWLLYITLHSNAPTAYRQGISVLDLRDPDGTGGFKRLNAPGGSAFRDGPIEDALFNYPKDIKFDNDGNMFVADYGNHCIRMISADNIVTTVAGQPGVAGYKDGGPVESLFKNPWGVAVNEQGDIYIADWGNARIRKLVIELEHHHHHH	not soluble
MLIQKAYKYRLYPTDQQAQRLRQLCGCARFVWNYALNETLSIHDAGGKIPSAFDLNKRLTGWKKLPELAFLSEGYTDNLQQKLKDLRSAWDRCFDKSLTAEKPVFKKKTKGCDSIRFVNFSKYCGLDYGRVKLPSGLGWVKFRQSRKIEGVIKNCTISQHAGHWYVSFQVELAVTDPIHASTSAIGLDAGITKLATLSDGTVFEPVNSLKKNQDKLARLQRRLARMVKFSANWKKQKAKISRFHSHIANIRRDYLHKTTTTISKNHAMIVIEDLKVSNMSKSAAGTVDQPGRNVAAKSGLNRAILDQGWAEMRRQLEYKQAWRGGDVLAINPAYTSQKCACCGHTSKNNRRTQASFICTACGYTANADVNGARNILTAGFEVMAAGQILPSVRKGRARKAA	not soluble
IAQQTEETVVEVETVTGFGANDAILDIRSIDEQEDKPLKVEGVEVVSLPFYKLSTKFGDLDQSKTWLLWCERGVMSRLQALYLREQGFSNVKVYR	not soluble
MSLDKNDVVKKILESKKYENLDSDIVEKVVSISEKKYKLKEVENYSKKKLHQIWGSYYSAYPNWDKLLKKYNQGQLSIEDLLKIHSSTNERVATLNDFYTYVFGNIKHVSSILDFGCGFNPLALYQWNENEKIIYHAYDIDRAEIAFLSSIIGKLKTTIKYRFLNKESDVYKGTYDVVFLLKMLPVLKQQDVNILDFLQLFHTQNFVISFPIKSLSGKEKGMEENYQLWFESFTKGWIKILDSKVIGNELVYITSGFQKEGHHHHHH	soluble
